Experimental data as given in PMC5510750.

Target: IFN-λ3 H11 displayed on yeast
Test: flow cytometry on cells

Sequence of IL-10Rβ, monomeric soluble receptor (Q08334 20-220): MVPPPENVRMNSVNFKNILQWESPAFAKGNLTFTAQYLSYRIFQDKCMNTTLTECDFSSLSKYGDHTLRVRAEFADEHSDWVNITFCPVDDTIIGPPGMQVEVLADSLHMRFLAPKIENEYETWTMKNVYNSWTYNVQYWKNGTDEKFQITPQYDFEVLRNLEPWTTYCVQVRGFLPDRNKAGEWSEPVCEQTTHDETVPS

Kd: 200 nM
Substance: IL-10Rβ, monomeric soluble receptor (from UniProt Q08334 20-220)
